Assay results: patent US7285395B2, “Stearoyl-CoA desaturase 4 gene” (Wisconsin Alumni Research Foundation, priority 2004, dated 2007)

Legend:
Type in all cases: in vivo, mouse
[1] = system: mSCD2; assay: quantitative RT-PCR of mSCD2 mRNA in hearts of leptin-treated ob/ob mice; conditions: heart of leptin-treated ob/ob mice, 12 days
Procedure: (§1) A, SCD activity: Microsomes were prepared from hearts of PBS-treated, ob/ob, ob/ob pair-fed (PF), and leptin-treated (ob/ob-Leptin) mice, and SCD enzyme activity was determined by measuring the incorporation of radioactivity in oleoyl-CoA using [1-^14C]stearoyl-CoA as a substrate. The reaction products were separated by TLC, and the radioactivity was quantitated. Each value represents the mean±S.E. (n=4). B, Levels of monounsaturated fatty acids in the hearts of ob/ob mice: Total fatty acids were extracted from heart of ob/ob mice treated with either leptin or PBS and wild type controls quantitated by GLC as described in the example below. *, p<0.05 versus wt-PBS; #,p<0.05 versus ob/ob-PBS. C, Total RNA was prepared from hearts of PBS or leptin-treated ob/ob mice and used to measure SCD1, SCD2, and SCD4 mRNA levels by quantitative RT-PCR analysis. The fold change relative to that of wild type was calculated after correction for the levels of cyclophilin used as a standard. Each value represents the mean±S.E. (n=4).
(§2) Subcutaneous Leptin Treatment—ob/ob mice were individually caged and allowed to acclimate for a number of days prior to the start of the experiment. […] Body mass and food intake were measured daily. […]

[2] = system: mSCD4; assay: quantitative RT-PCR of mSCD4 mRNA in hearts of leptin-treated ob/ob mice; conditions: heart of leptin-treated ob/ob mice, 12 days
Procedure: as §1, §2

[3] = system: SCD; assay: SCD enzyme activity in heart microsomes of leptin-treated ob/ob mice; conditions: leptin 12 days, [1-14C]stearoyl-CoA substrate, elevated 3-fold in untreated ob/ob
Procedure: as §1, §2

[4] = system: mSCD1; assay: quantitative RT-PCR of mSCD1 mRNA in hearts of leptin-treated ob/ob mice; conditions: heart of leptin-treated ob/ob mice, 12 days
Procedure: as §1, §2

B1: leptin: recombinant mouse leptin (Amgen, Thousand Oaks, Calif.) (protein, UniProt P41160 22-167, looked up)
Leptin: VPIQKVQDDTKTLIKTIVTRINDISHTQSVSAKQRVTGLDFIPGLHPILSLSKMDQTLAVYQQVLTSLPSQNVLQIANDLENLRDLLHLLAFSKSCSLPQTSGLQKPESLDGVLEASLYSTEVVALSRLQGSLQDILQQLDVSPEC
[1]
  expression of mSCD2 isoform: unchanged
[2]
  decrease of SCD4 mRNA levels: greater than 75%
[3]
  SCD activity in heart: completely normalized to wild type levels
[4]
  expression of mSCD1 isoform: unchanged
